Results on five molecules are retold here after patent US20180112000A1 (MILTENYI BIOTEC, published 2018).

The target in test [1] is T1, recombinant CD28 antigen (extracellular domain, expressed in mammalian cells) (UniProt P10747 19-152, limits assumed).
T1 construct: extracellular domain; Immobilized on a CM5 chip by amine coupling; also called T-cell-specific surface glycoprotein CD28
Kind of test: SPR (Biacore), CD28 ECD on CM5 chip, Fab as analyte at 50 ug/mL, 1:1 binding mass transfer model. (In SPR one partner is held on a chip, and binding of the other changes the refractive index at the surface.)
Protocol: (§1) Therefore, recombinant CD28 antigen (extracellular domain, expressed in mammalian cells) was immobilized on a CM5 chip by standard amine coupling. The Fab variants were used as analytes in HBS-EP buffer (0.01 M HEPES pH 7.4, 0.15 M NaCl, 3 mM EDTA, 0.005% v/v Surfactant P20) in a concentration of 50 μg/mL. Evaluation was conducted with the BIAeval Software using an 1:1 binding mass transfer model.

Test [2] has as its target T1, recombinant CD28 antigen (extracellular …). Kind of test: SPR (Biacore), CD28 ECD on CM5 chip, Fab as analyte.
Protocol: as §1

B1: huCD28_v4 Fab (humanized) (Fab, V domains shown, not shown: small tags and cut ends)
VH: QVQLQESGPGLVKPSETLSLTCTVSGFSLTSYGVHWIRQPPGKGLEWLGVIWAGGSTNYNSSLKSRVTISKDTSKNQVSLKLSSVTAADTAVYYCARDKRAPGKLYYGYPDYWGQGTTLTVSS
VL: DIVMTQSPDSLAVSLGERATINCRASESVEYYVTSLMQWYQQKPGQPPKLLIYAASNVESGVPARFSGSGSGTDFTLTISPLQAEDVAVYYCQQTRKVPSTFGGGTKLEIKR
notes: Humanized 15E8 Fab expressed in E. coli periplasm
By Kd is commonly meant the constant that tells how readily two partners part at equilibrium. As a reminder, the koff is the first-order rate constant of dissociation. Usually kon stands for the rate constant with which the complex forms. B1: in test [1], the Kd is 53 nM, the koff turned out to be 0.021 s⁻¹ and the kon was determined as 400000 M⁻¹ s⁻¹. Besides, the “affinity [%] (by KD, chCD28 Fab set to 100%)” value (“affinity [%]” below) in test [2] stood at 60%.

B2: huCD28_v1 Fab (humanized) (Fab, V domains shown, not shown: small tags and cut ends)
VH: QVQLQESGPGLVKPSETLSLTCTVSGFSLTSYGVHWVRQPPGKGLEWLGVIWAGGSTNYNSALMSRLTISKDTSKNQVSLKLSSVTAADTAVYYCARDKRAPGKLYYGYPDYWGQGTTLTVSS
VL: DIVMTQSPDSLAVSLGERATINCRASESVEYYVTSLMQWYQQKPGQPPKLLIYAASNVESGVPDRFSGSGSGTDFTLTISSLQAEDVAVYYCQQTRKVPSTFGGGTKLEIKR
notes: as for B1
In the case of B2, in test [1], the Kd came out at 42 nM, the koff amounted to 0.08 s⁻¹ and the kon worked out at 1.9e+06 M⁻¹ s⁻¹. For the same molecule, in test [2], the “affinity [%]” value stood at 76%.

B3: huCD28_v2 Fab (humanized) (Fab, V domains shown, not shown: small tags and cut ends)
VH: QVQLQESGPGLVKPSETLSLTCTVSGFSLTSYGVHWVRQPPGKGLEWIGVIWAGGSTNYNPSLKSRVTISKDTSKNQFSLKLSSVTAADTAVYYCARDKRAPGKLYYGYPDYWGQGTTLTVSS
VL: DIVMTQSPDSLAVSLGERATINCKSSESVEYYVTSLLQWYQQKPGQPPKLLIYAASNRESGVPDRFSGSGSGTDFTLTISSLQAEDVAVYYCQQTRKVPSTFGGGTKLEIKR
notes: as for B1
B3: in test [1], the Kd is 92 nM, the koff was 0.055 s⁻¹ and the kon was determined as 600000 M⁻¹ s⁻¹. In addition, the “affinity [%]” value in test [2] is 35%.

B4: huCD28_v3 Fab (humanized) (Fab, V domains shown, not shown: small tags and cut ends)
VH: QVQLQESGPGLVKPSETLSLTCTVSGFSLTSYGVHWIRQPPGKGLEWLGVIWAGGSTNYNSSLKSRVTISKDTSKNQVFLKLSSVTADDTAVYYCARDKRAPGKLYYGYPDYWGQGTTLTVSS
VL: DIVMTQSPDSLAVSLGERATINCRASESVEYYVTSLMQWYQQKPGQPPKLLIYAASNVESGVPARFSGSGSGTDFTLTISPLQAEDVAVYYCQQTRKVPSTFGGGTKLEIKR
notes: as for B1
Take B4: in test [1], the Kd was 52 nM, the koff stood at 0.026 s⁻¹ and the kon was 500000 M⁻¹ s⁻¹. For the same molecule, in test [2], the “affinity [%]” value was found to be 62%.

B5: chCD28 Fab (chimeric) (Fab, V domains shown)
VH: QVQLKESGPGLVAPSQSLSITCTVSGFSLTSYGVHWVRQPPGKGLEWLGVIWAGGSTNYNSALMSRLSISKDNSKSQVFLKMNSLQTDDTAMYYCARDKRAPGKLYYGYPDYWGQGTTLTVSS
VL: DIVLTQSPASLAVSLGQRATISCRASESVEYYVTSLMQWYQQKPGQPPKLLIYAASNVESGVPARFSGSGSGTDFSLNIHPVEEDDIAMYFCQQTRKVPSTFGGGTKLEIKR
notes: Fab expressed in E. coli periplasm; not shown: Fabs were purified by IMAC
As to B5, in test [1], the Kd turned out to be 32 nM, the koff turned out to be 0.032 s⁻¹ and the kon was 1e+06 M⁻¹ s⁻¹. Also, the “affinity [%]” value in test [2] turned out to be 100%.
